These results are taken from paper PMC4083444 (Nature Communications, 2014).

This data set deals with the molecule itself. Nature of the data set: crystal structure.

B1: TmCdsA S200C/S223C double-cysteine mutant (enzyme, Thermotoga maritima, UniProt Q9X1B7 1-270, looked up)
chain: MDDLKTRVITASVVAPFVVLCFVSYESLIGLVSAILILAGYELITLEMKERDARFFYVILLALYPVLYGLVFEEPTQPLSILFITGVVFSLITDKDPSQVFKTVAAFSIALIYVTFFLSFFLPIYRDFGAANALLVLTSTWVFDSFAYFTGLKFGRTRISPRYSPRKSLEGVIGGFLGVVIYTFLYRLVVNDLLSVNVICFRTFLPFAATVAIMDTFGDIFECALKRHYGVKDSGKTLPGHGGMLDRIDGLLFVAPVSYIVFKILEGVVR
modifications: mercury labels (CH3HgCl) bound to the endogenous and engineered Cys residues in the crystal
Consider B1, for which the binding result is given as “binds”.

B2: TmCdsA S200C/S258C double-cysteine mutant (enzyme, Thermotoga maritima, UniProt Q9X1B7 1-270, looked up)
chain: MDDLKTRVITASVVAPFVVLCFVSYESLIGLVSAILILAGYELITLEMKERDARFFYVILLALYPVLYGLVFEEPTQPLSILFITGVVFSLITDKDPSQVFKTVAAFSIALIYVTFFLSFFLPIYRDFGAANALLVLTSTWVFDSFAYFTGLKFGRTRISPRYSPRKSLEGVIGGFLGVVIYTFLYRLVVNDLLSVNVICFRTFLPFAATVAIMDTFGDIFESALKRHYGVKDSGKTLPGHGGMLDRIDGLLFVAPVCYIVFKILEGVVR
Turning to B2, the binding result was “binds”.
